From patent US20170304442A1 (SORRENTO THERAPEUTICS, published 2017)
Positions count from the first letter of the chain named.

B1: WIr2B8 (antibody, V domains shown)
VH: EVQLVQSGAEVKKPGSSVKVSCKASGGTFSSYAISWVRQAPGQGLEWMGGIIPIFGTANYAQKFQGRVTITADESTSTAYMELSSLRSEDTAVYYCARGQPFRDSSGYYWSYFDYWGQGTLVTVSS
VL: SYELTQPPSVSKDLRQTATLTCTGNSNNVGNQGAAWLQQHQGHPPKLLSDRNNNRPSGISERLSASRSENIASLTITGLQPEDEADYFCAAWDTSLNTFLFGGGTKLTVL
notes: Fully human IgG; also called Wlr2B8
B2: WIr1B6 (antibody, V domains shown)
VH: QVQLVESGGGLVQPGGSLRLSCAASGFTFDDYAMHWVRQAPGKGLEWVSGISWNSGSIGYADSVKGRFTISRDNAKNSLYLQMNSLRAEDTALYYCAKVRAAAGTGGDYFDYWGQGTLVTVSS
VL: LPVLTQPRSVSGSPGQSVTISCTGSSSDVGRSNFVSWYQQYPGKAPKLMIFDVNKRPSGVPDRFSGSKSGNTASLTISGLQADDEAEYYCSSYAGTWIFGGGTQLTVL
notes: Fully human IgG; also called Wlr1B6
B3: WI2D9 (antibody, V domains shown)
VH: EVQLVQSGAEVKRSGASVKVSCKLSGDTLTDLSIHWVRQAPGKGLEWMGGFDFEDGEIVYGDKFKGRVTVTEDPSTDTAYMDLKRLTFEDTAIYYCATIKDIPGRYYFDFWGQGTLVTVSS
VL: QSVVTQPPSVSGAPGQRVTISCTGSSSNIGAGYDVHWYQQLPGTAPKLLIYGNSNRPSGVPDRFSGSKSGTSASLAITGLQAEDEADYYCQSYDSSLSGSNWVFGGGTKLTVL
notes: Fully human IgG; also called Wl2D9
B4: WIr2A2 (antibody, V domains shown)
VH: EVQLVQSGAEVKKPGASVKVSCKVSGYTLTELSMHWVRQAPGKGLEWMGGFDPEDGETIYAQKFQGRVTMTEDTSTDTAYMELSSLRSEDTAVYYCATFMFDHDWFQLDPWGQGTLVTVSS
VL: QSALTQPPSASGTPGQRVTIACSGSSSNIGTNTVNWYQQLPGTAPKLLIYNNNQRPSGVPDRFSGSKSGTSASLAITGLQAEDEADYYCQSYDRSLSGYVFGSGTKLTVL
notes: Fully human IgG; also called Wlr2A2
B5: WIr1G5 (antibody, V domains shown)
VH: QVQLVESGGGLIQPGGSLRLSCAASGFTVSSNYMSWVRQAPGKGLEWVSVIYSGGSTYYADSVKGRFTISRDNSKNTLYLQMNSLRAEDTAVYYCARFSGWNAFDIWGQGTMVTVSS
VL: DIVMTQTPSTLSASVGDRVTITCRASQSISSWLAWYQQKPGKAPKLLIYKASSLESGVPSRFSGSGSGTDFTLTISSLRPEDFATYYCQHSSTFGQGTRLEIK
notes: Fully human IgG; also called Wlr1G5
B6: WIr1G10 (antibody, V domains shown)
VH: QVQLQQSGPGLVKPSQTLSLTCAISGDTVSSNSAAWNWIRQSPSRGLEWLGGTYYRSKWYNDYAVSVKSRITINPDTSKNQFSLQLNSVTPEDTAVYYCTRSAPAAFDYWGQGTLVTVSS
VL: QSVVTQPPSVSAAPGQKVTISCSGSTSNIGNNYVSWYQQLPGTAPKLLIYDNNKRPSGIPDRFSGSKSGTSATLGITGLQTGDEADYYCGTSDTSLSIYVFGTGTKVTVL
notes: Fully human IgG; also called Wlr1G10
B7: WIr2B12 (antibody, V domains shown)
VH: EVQLVQSGAEVKKPGASVKVSCKASGYTFTSYYMHWVRQAPGQGLEWMGIINPSGGSTSYAQKFQGRVTMTRDTSTSTAYMELSSLRSEDTAVYYCARDIDDYGDGVWGQGTMVTVSS
VL: B6 VL with V4L, T26S, G30A, K54E, S92W, T94G, I98A, Y99G, T103G, V107L
notes: Fully human IgG; also called Wlr2B12
B8: WIr2A9 (antibody, V domains shown)
VH: QVQLVESGAEVKKPGASVKVSCKVSGYTLTELSMHWVRQAPGKGLEWMGGFDPEDGETIYAQKFQGRVTMTEDTSTDTAYMELSSLRSEDTAVYYCATGGSYYYGSGSYGSRPGYFDLWGRGTLVTVSS
VL: QSVLTQPASVSGSPGQSITISCTGTSSDVGSYNLVSWYQQHPGKAPKLMIYEGSKRPSGVPDRFSGSKSGNTASLSISGLQAEDEADYYCSSYTSSSTLVFGGGTKLTVL
notes: Fully human IgG; also called Wlr2A9
B9: WIrF8 (antibody, V domains shown)
VH: EVQLLESGAEVKKPGASVKVSCRVPGYSLSELSMHWVRQAPGKGLEWMGGFDPEDGETIYAQKFQGRVTMTEDTSTDTAYMELSSLRSEDTAVYYCAASGGWEVHDAFDTWGQGTMVTVSS
VL: DIVMTQSPSSLSASVGDRVTITCRASQDISYYLAWYQQKPGKAPELLIYAGSSLQSGVPSRFSGSESGTDFTLTISSLQPEDVASYYCQQYKTAPYTFGQGTKLEIK
notes: Fully human IgG; also called WlrF8
B10: WI1A5 (antibody, V domains shown)
VH: QVQLVQSGREMKKPGASMKVSCKASGYTFTKYGISWVRQAPGQGLEWMGWISADNGKTHYAQKLQGRVTMTTDTSTSTAYLELRRLRSDDTAVYFCANDGGYWGQGTLVTVSS
VL: QSVLTQPPSVSGAPGQRVTISCTGTSSNLGAGFPVYWYQQLPGKPPKVLIDGNNDRPSGVPDRVSGSKSDTSASLAITGLQAEDEADYYCLSYDSGLDGWVFGGGTKLTVL
notes: Fully human IgG; also called Wl1A5
B11: WIr2A6 (antibody, V domains shown)
VH: EVQLVQSGGGLVKPGGSLRLSCEASGFTVSSYYMNWIRQAPGKGLEWISSFTAEGSTYYADSVRGRFSISRDNAKNSLYLEMTRLRADDTAVYYCARDLDRRDWYGGYFDSWGQGTLVTVSS
VL: LPVLTQPPSVSGAPGQRLTISCTGSSSNIGAGYGVHWYQHLPGSAPKLLIYGNSNRPSGVTDRISGSKSGTSASLAITGLQTGDEADYYCAAWDSYLSGYVFGTGTKVTVL
notes: Fully human IgG; also called Wlr2A6
B12: WIr1E2 (antibody, V domains shown)
VH: QMQLVQSGAEVKEPGSSVKVSCKASGDNSYPLNWVRQAPGQGLEWMGGIIPIFGTPNYAQKFEGRVTITADESTNTAYMEISSLRFEDTAMYYCAREGDGYNYSPLDYWGQGTLVTVSS
VL: QAVLTQPPSVSKGLRQTATLTCTGDSSNVGNQGAAWLQQHPGLPPKVLSYRNNSRPSGISERLFVSRSGNSASLTITGLQPEDEADYYCSAWDSSLGAWVFGGGTQLTVL
notes: Fully human IgG; also called Wlr1E2
B13: WI1E6 (antibody, V domains shown)
VH: EVQLLESGGGVVQPGRSLRLSCAASGFTFSSYGMHWVRQAPGKGLEWVAVIWYDGSNKYYADSVKGRFTISRDNSKNTLYLQMNSLRAEDTAVYYCARGSAFNIWGQGTMVTVSS
VL: QAVVTQPASVSGSPGQSITISCIGTSSDVGGYNYVSWYQQHPGKAPKLMIYDVSNRPSGVSNRFSGSKSGNTASLTISGLQAEDEADYYCSSYTTSNTFVFGTGTKVTVL
notes: Fully human IgG; also called Wl1E6
B14: WI1A6 (antibody, V domains shown)
VH: B13 VH
VL: LPVLTQPASVSGSPGQSITITCTGTSSDVGAYNYVSWYQQRPGKAPKLMIYDVSKRPSGVSNRFSGSKSGNTASLTISGLQAEDEADYYCSSYTSSSTYVVFGGGTKLTVL
notes: Fully human IgG; also called Wl1A6
B15: WIr2A7 (antibody, V domains shown)
VH: QVQLVQSGAEVKKPGASVKVSCKVSGYTLTELSIYWVRQAPGKGLEWVGGFDPEDGETVYAQNFQGRVTMTEDTSTDTAYMELSSLRSEDTAVYYCATHTSYDKVWGRYRPSLAFDIWGQGTMVTVSS
VL: DIVMTQTPSSLSASVGDRVTITCQASQDISKYLNWYQQKPGKAPNLLIYDASNLETGVPSRFSGSGSGTDFTLTISSLQPEDIGTYYCQQDDNLPLTFGGGTKVEIK
notes: Fully human IgG; also called Wlr2A7
B16: WIr2B5 (antibody, V domains shown)
VH: EVQLVESGAEVKKPGASVKVSCKASGYTFTSYGISWVRQAPGQGLEWMGWISAYNGNTNYAQKLQGRVTMTTDTSTSTAYMELRSLRSDDTAVYYCARDWDSTSWENYYYGMDVWGQGTTVTVSS
VL: B15 VL with K31N, N45K, L73F, G84A, D91H, V104L
notes: Fully human IgG; also called Wlr2B5
B17: WIr1B11 (antibody, V domains shown)
VH: EVQLVQSGAEVKKPGASVKVSCKASGYTFTSYDINWVRQATGQGPEWLGWLNPGSGKTGNAQNFQGRVFMTWDTSKDTAYMEMSSLRSDDTAVYYCARNLDYWGQGTLVTVSS
VL: DIVMTQTPSSLSASVGDRVTITCRASQSISSYLNWYQQKPGKAPKLLIYAASSLQSGVPSRFSGSRSGTDFTLTITNVQPEDFATYYCLQAYDFPITFGQGTKVEIK
notes: Fully human IgG; also called Wlr1B11
B18: WIr2B11 (antibody, V domains shown)
VH: B17 VH
VL: AIQLTQSPSTLSASVGDRVTITCRASQSISSWLAWYQQKPGKAPKLLIYATSRLQSGVPSRFSGSGSGTDFTLTINSLQPEDFATYYCQQYKSYPVTFGPGTKVDIK
notes: Fully human IgG; also called Wlr2B11

What follows are binders tested against T1, recombinant human WISP1/His (human, UniProt O95388 23-367) (assay: ELISA screening).
T1 construct: also called hWISP1; recombinant human WISP1 protein; not shown: His tag
T1 sequence (looked up): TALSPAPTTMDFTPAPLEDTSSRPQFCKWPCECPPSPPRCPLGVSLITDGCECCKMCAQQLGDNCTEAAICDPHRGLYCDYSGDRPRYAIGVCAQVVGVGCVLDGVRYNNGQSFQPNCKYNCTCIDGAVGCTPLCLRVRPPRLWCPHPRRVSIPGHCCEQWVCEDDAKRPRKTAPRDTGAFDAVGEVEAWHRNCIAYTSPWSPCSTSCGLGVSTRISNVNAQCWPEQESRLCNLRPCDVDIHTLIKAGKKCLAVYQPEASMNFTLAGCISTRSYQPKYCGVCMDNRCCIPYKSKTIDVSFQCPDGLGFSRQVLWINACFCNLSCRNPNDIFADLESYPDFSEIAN
B1: binds. B2: binds. B3: binds. B4: binds. B5: binds. B6: binds. B7: binds. B8: binds. B9: binds. B10: binds. B11: binds. B12: binds. B13: binds. B14: binds. B15: binds. B16: binds. B17: binds. B18: binds.

Each binder was assayed against T2, recombinant mouse WISP1/His (mouse, UniProt O54775 23-367) (assay: ELISA screening).
T2 construct: also called murine WISP1; mWISP1; not shown: His tag
T2 sequence (looked up): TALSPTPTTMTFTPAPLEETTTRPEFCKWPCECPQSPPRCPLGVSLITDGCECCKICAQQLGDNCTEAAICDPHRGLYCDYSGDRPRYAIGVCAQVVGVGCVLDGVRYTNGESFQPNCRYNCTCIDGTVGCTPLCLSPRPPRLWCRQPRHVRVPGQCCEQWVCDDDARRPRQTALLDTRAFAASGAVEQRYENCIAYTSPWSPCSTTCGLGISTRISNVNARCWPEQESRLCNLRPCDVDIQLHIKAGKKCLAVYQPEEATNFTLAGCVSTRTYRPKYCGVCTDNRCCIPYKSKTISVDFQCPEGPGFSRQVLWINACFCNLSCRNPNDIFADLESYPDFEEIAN
B1: binds. B2: binds. B3: binds. B4: binds. B5: binds. B6: binds. B7: binds. B8: binds. B9: binds. B10: binds. B11: binds. B12: binds. B13: binds. B14: binds. B15: binds. B16: binds. B17: binds. B18: binds.
